Experimental data from US20250043302A1, “MUTATED HYDROXYPHENYLPYRUVATE DIOXYGENASE POLYPEPTIDE, AND CODING GENE AND USE THEREOF” (BEIJING DABEINONG BIOTECHNOLOGY CO., LTD., priority 2021, published 2025).

Experiments:
Type in all cases: in vivo
[1] = tested on: Arabidopsis thaliana T1 plants; assay: Isoxaflutole tolerance of transgenic Arabidopsis thaliana T1 plants (spray, bleached leaf area grade, damage score); design: Scores (pesticide damage): scale not given here; conditions: spray, Arabidopsis thaliana T1 plants; for Classification and statistics of the grade of pesticide damage: Grade 0 (number of plants) / Classification and statistics of the grade of pesticide damage: Grade 1 (number of plants) / Classification and statistics of the grade of pesticide damage: Grade 2 (number of plants) / Classification and statistics of the grade of pesticide damage: Grade 3 (number of plants): 16 plants
How it was run: (§1)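 T1 transformants selected by glufosinate; 18-day-old plants, with empty-vector and wild-type controls, sprayed with topramezone (25–200 g ai/ha), isoxaflutole (35–280 g ai/ha) or mesotrione (52.5–420 g ai/ha), water as 0×. Bleached leaf area fraction scored at 7 DAT as grades 0–3.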

[2] = tested on: Arabidopsis thaliana T1 plants; assay: Topramezone tolerance of transgenic Arabidopsis thaliana T1 plants (spray, bleached leaf area grade, damage score); conditions: 7 DAT, Table 4; for Classification and statistics of the grade of pesticide damage: Grade 0 / Classification and statistics of the grade of pesticide damage: Grade 1 / Classification and statistics of the grade of pesticide damage: Grade 2 / Classification and statistics of the grade of pesticide damage: Grade 3: number of plants; for Scores: pesticide damage score 0-100
How it was run: as §1

[3] = tested on: Arabidopsis thaliana T1 plants; assay: Mesotrione tolerance of transgenic Arabidopsis thaliana T1 plants (spray, bleached leaf area grade, damage score); design: Scores: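 damage score 0-100 computed as Σ(N×S)/(T×M)×100 over grades 0-3 with higher meaning more damage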; conditions: Arabidopsis thaliana T1 plants; for Grade 0 (classification and statistics of the grade of pesticide damage; number of plants) / Grade 1 (classification and statistics of the grade of pesticide damage; number of plants) / Grade 2 (classification and statistics of the grade of pesticide damage; number of plants) / Grade 3 (classification and statistics of the grade of pesticide damage; number of plants): 16 plants
How it was run: as §1

[4] = isoxaflutole 35 g ai/ha (0.5x field concentration)
[5] = isoxaflutole 70 g ai/ha (1x field concentration)

| Molecule | Resistance evaluation [1, 4] | Scores (pesticide damage) [1, 4] | Classification and statistics of the grade of pesticide damage: Grade 0 (number of plants) [1, 4] | Classification and statistics of the grade of pesticide damage: Grade 1 (number of plants) [1, 4] | Classification and statistics of the grade of pesticide damage: Grade 2 (number of plants) [1, 4] | Classification and statistics of the grade of pesticide damage: Grade 3 (number of plants) [1, 4] | Resistance evaluation [1, 5] | Scores (pesticide damage) [1, 5] | Classification and statistics of the grade of pesticide damage: Grade 0 (number of plants) [1, 5] | Classification and statistics of the grade of pesticide damage: Grade 1 (number of plants) [1, 5] | Classification and statistics of the grade of pesticide damage: Grade 2 (number of plants) [1, 5] | Classification and statistics of the grade of pesticide damage: Grade 3 (number of plants) [1, 5] | Classification and statistics of the grade of pesticide damage: Grade 0 ([2]; topramezone 25 g ai/ha (1×)) | Classification and statistics of the grade of pesticide damage: Grade 1 ([2]; topramezone 25 g ai/ha (1×)) | Classification and statistics of the grade of pesticide damage: Grade 2 ([2]; topramezone 25 g ai/ha (1×)) | Classification and statistics of the grade of pesticide damage: Grade 3 ([2]; topramezone 25 g ai/ha (1×)) | Classification and statistics of the grade of pesticide damage: Grade 0 ([2]; topramezone 100 g ai/ha (4×)) | Classification and statistics of the grade of pesticide damage: Grade 1 ([2]; topramezone 100 g ai/ha (4×)) | Classification and statistics of the grade of pesticide damage: Grade 2 ([2]; topramezone 100 g ai/ha (4×)) | Classification and statistics of the grade of pesticide damage: Grade 3 ([2]; topramezone 100 g ai/ha (4×)) | further results |
| --- | --- | --- | --- | --- | --- | --- | --- | --- | --- | --- | --- | --- | --- | --- | --- | --- | --- | --- | --- | --- | --- |
| BnHPPD-02: nucleotide sequence encoding wild-type Brassica napus HPPD; vector DBN11742 (nucleic acid, BnHPPD-02 Nucleotide Sequence, vector DBN11742) DNA: ATGGGACATGAAAACGCGGCAGTGTGTGAAACTCAACAACATGATGACGCCGCCTCCCCGGGGTTTAAACTTGTCGGGTTCTCAAAATTTGTTAGGAAGAATCCAAAGTCTGACAAGTTCAAGGTGAAACGCTTCCACCACATCGAGTTCTGGTGCGGGGATGCAACAAATGTTTCACGCCGCTTTTCATGGGGACTAGGAATGAGGTTTAGCGCAAAGAGTGATCTCTCCACTGGTAATATGGTTCATGCGAGCTACTTGCTCACATCTGGAGACCTGAGATTCCTCTTCACCGCACCATATTCTCCCTCCCTGTCAGCTGGTGAAGCTCAGCCTTCAGCAACTGCAAGTATCCCTTCGTTTGATCATGCATCGTGCAGGTCTTTCTTCAGTTCACATGGACTCGGCGTCAGAGCAGTAGCGATCGAAGTAGAGGATGCTGAATCAGCTTTCTCCATATCTGTCGCCAACGGCGCGGTGCCTTCTTCTCCACCAAACGTCTTGAATGGTGCTGTTACCATTGCTGAGGTGAAGCTGTACGGAGATGTTGTTTTAAGATATGTTTCATATTACAATGGGACCGTTTCTTTTCTTCCCGGCTTTGAATCTGTTGATGATACTTCTTCCTTCCCTCTTGATTATGGGATCAGGCGGCTGGACCACGCCGTCGGCAACGTGCCGGAGTTAGGTCCTGCTTTGACATATCTTGCCGGCTTCACTGGATTCCATCAATTTGCAGAGTTTACGGCTGACGACGTGGGGACCGCGGAGAGTGGGCTGAACTCAGCAGTCTTGGCCAACAATGATGAAATGGTGCTCCTCCCCATCAATGAACCTGTGCATGGAACAAAGAGAAAGTCGCAGATTCAAACATTTTTAGAGCACAATGAGGGAGCTGGGCTACAGCACCTCGCATTGATGTCAGAAGATATTTTTCGAACGTTGAGGGAGATGCGGAAACGATCTGGTGTAGGCGGCTTTGACTTCATGCCATCCCCTCCGCCAACCTACTACAAGAACCTGAAGAAGAGGGTTGGAGACGTCCTTTCCGAGGAGCAAATTGAAGAATGTGAGGAGCTTGGAATTCTGGTGGACAGAGATGATCAAGGAACACTACTTCAGATCTTCACAAAACCATTGGGCGACAGGCCAACGATATTCATTGAGATCATTCAGCGCGTTGGATGCATGAAGCGTGATGAGGAAGGGAAGGTCTACCAGAGTGGCGGTTGTGGTGGATTTGGAAAAGGAAATTTTTCTGAGCTGTTCAAAAGCATAGAAGAGTATGAGAAAACATTGGAGGCCAAGCAGCTTGTTGGTTGA | Non-resistant | 100 | 0 | 0 | 0 | 16 | Non-resistant | 100 | 0 | 0 | 0 | 16 | 0 | 0 | 0 | 16 | 0 | 0 | 0 | 16 | Scores ([2]; topramezone 25 g ai/ha (1×)): 100; Scores ([2]; topramezone 100 g ai/ha (4×)): 100; Resistance evaluation ([2]; topramezone 25 g ai/ha (1×)): non-resistant (non-resistant plants (scores 68-100)); Resistance evaluation ([2]; topramezone 100 g ai/ha (4×)): non-resistant (non-resistant plants (scores 68-100)); Resistance evaluation ([3]; mesotrione 52.5 g ai/ha): Non-resistant; Scores ([3]; mesotrione 52.5 g ai/ha): 100; Grade 0 (classification and statistics of the grade of pesticide damage; number of plants) ([3]; mesotrione 52.5 g ai/ha): 0; Grade 1 (classification and statistics of the grade of pesticide damage; number of plants) ([3]; mesotrione 52.5 g ai/ha): 0; Grade 2 (classification and statistics of the grade of pesticide damage; number of plants) ([3]; mesotrione 52.5 g ai/ha): 0; Grade 3 (classification and statistics of the grade of pesticide damage; number of plants) ([3]; mesotrione 52.5 g ai/ha): 16; Resistance evaluation ([3]; mesotrione 105 g ai/ha): Non-resistant; Scores ([3]; mesotrione 105 g ai/ha): 100; Grade 0 (classification and statistics of the grade of pesticide damage; number of plants) ([3]; mesotrione 105 g ai/ha): 0; Grade 1 (classification and statistics of the grade of pesticide damage; number of plants) ([3]; mesotrione 105 g ai/ha): 0; Grade 2 (classification and statistics of the grade of pesticide damage; number of plants) ([3]; mesotrione 105 g ai/ha): 0; Grade 3 (classification and statistics of the grade of pesticide damage; number of plants) ([3]; mesotrione 105 g ai/ha): 16 |
| GsHPPDm-F383W-02: nucleotide sequence encoding Gossypium hirsutum HPPD with F383W; vector DBN11740 (nucleic acid, GsHPPDm-F383W-02 Nucleotide Sequence, vector DBN11740) DNA: ATGGTTCAAACAAATCAATCTGGTTCTGGGAATGATTTCAAGCTGGTTGGTTTCTCAAATTTTGTGCGTAGCAATCCCAAATCAGACCGCTTCACGGTCAAGAGATTCCACCACATTGAATTTTGGTGCACTGATGCCACTAATGTGGCGAGGAGGTTTTCATGGGGTTTAGGGATGCAGTTCGTCGCCAAGAGTGACCTCTCCACAGGAAATTTGACGCATGCAAGCTACCTGCTGCGGAGCCGCGACTTGAATTTCCTGTTTACAGCACCATATTCACCCAGTATTGCAGTTGCTCAAAACCTTTCGCCACAAAGCACTGCTTCCATACCTTCATTTGATCACTCGCTTTGTCGGTCCTTTGCTGCAACACATGGACTTGGCGTCAGAGCAATTGCCATCGAGGTGGACGACGCCGAAACTGCCTTCACCACGAGCGTGACACATGGCGCGCTCCCTTTTTGTCCACCAACACCACTAGGAGATGTGGCTACAATTGCTGAAGTTAAATTATATGGTGATGTTGTGCTCAGATATGTTTCTTACACCACAACCATCAACTCCGACCATGATTTTCTGCCTGGTTTTGAGAAGATTGAAGATACTCTATCGTATCCTTTGGATTATGGCCTGCGTCGGCTCGATCATGCTGTTGGCAACGTACCTGAATTAGGTCCTGCTGTATCTTATGTGAAATCTTTTACTGGGTTCCATGAGTTTGCAGAGTTCACCGCTGAGGATGTAGGAACAAGTGAATCTGGGCTGAACTCAGTTGTTTTGGCCAACAATGAGGAAATGGTCCTCTTACCAATGAACGAGCCGGTGTTCGGCACTAAGCGCAAATCTCAAATACAGACCTACTTGGAGCACAATGAAGGAGCTGGTGTGCAGCACCTCGCCCTCGTCTCGGAGGACATCTTCAAAACTTTAAGGGAGATGAGGAAACGATCCTTTGTGGGAGGATTTGAATTCATGCCTTCTCCGCCGCCGACATACTACAAGAAGCTCAAGCAGCGCGCGGGGGACATTTTGTCTGATGAGCAGATCAAGGAGTGTGAAGAGCTTGGGATTCTTGTTGATAGAGATGATCAAGGAACGCTTCTGCAGATATTTACCAAGCCCGTCGGCGACCGGCCTACTATATGGATTGAGATCATCCAGAGAATTGGTTGCATGGTGAAGGATGAAGAAGGGAAACAGTACCAGAAGGGCGGCTGCGGCGGGTTTGGAAAAGGAAACTTCAGTGAGCTGTTTAAAAGTATAGAGGAGTATGAAAAGAGCTTGGAAGCAAAACAATCACAAAATCCATGA | Non-resistant | 73 | 0 | 2 | 9 | 5 | Non-resistant | 100 | 0 | 0 | 0 | 16 | 0 | 3 | 9 | 4 | 0 | 0 | 0 | 16 | Scores ([2]; topramezone 25 g ai/ha (1×)): 69; Scores ([2]; topramezone 100 g ai/ha (4×)): 100; Resistance evaluation ([2]; topramezone 25 g ai/ha (1×)): non-resistant (non-resistant plants (scores 68-100)); Resistance evaluation ([2]; topramezone 100 g ai/ha (4×)): non-resistant (non-resistant plants (scores 68-100)); Resistance evaluation ([3]; mesotrione 52.5 g ai/ha): Non-resistant; Scores ([3]; mesotrione 52.5 g ai/ha): 100; Grade 0 (classification and statistics of the grade of pesticide damage; number of plants) ([3]; mesotrione 52.5 g ai/ha): 0; Grade 1 (classification and statistics of the grade of pesticide damage; number of plants) ([3]; mesotrione 52.5 g ai/ha): 0; Grade 2 (classification and statistics of the grade of pesticide damage; number of plants) ([3]; mesotrione 52.5 g ai/ha): 0; Grade 3 (classification and statistics of the grade of pesticide damage; number of plants) ([3]; mesotrione 52.5 g ai/ha): 16; Resistance evaluation ([3]; mesotrione 105 g ai/ha): Non-resistant; Scores ([3]; mesotrione 105 g ai/ha): 100; Grade 0 (classification and statistics of the grade of pesticide damage; number of plants) ([3]; mesotrione 105 g ai/ha): 0; Grade 1 (classification and statistics of the grade of pesticide damage; number of plants) ([3]; mesotrione 105 g ai/ha): 0; Grade 2 (classification and statistics of the grade of pesticide damage; number of plants) ([3]; mesotrione 105 g ai/ha): 0; Grade 3 (classification and statistics of the grade of pesticide damage; number of plants) ([3]; mesotrione 105 g ai/ha): 16 |
